Source: the array DNA melting data of Ke et al.

Test: melting temperature; UV melt of duplexes

AGTCTGGTCTGGATCTGAGAACTTCAGGCT+AGCCTGAAGTTCTCAGATCCAGACCAGACT ((((((((((((((((((((((((((((((+))))))))))))))))))))))))))))))
Tm (sodium 0.07 M, strand 2 µM): 66.3 °C | Tm (sodium 0.12 M, strand 2 µM): 70.4 °C | Tm (sodium 0.22 M, strand 2 µM): 74.5 °C | Tm (sodium 0.62 M, strand 2 µM): 78.8 °C | Tm (sodium 1.02 M, strand 2 µM): 80.6 °C

ATAAAAATGAATTCATTTTTAT+ATAAAAATGAATTCATTTTTAT ((((((((((((((((((((((+))))))))))))))))))))))
Tm (sodium 0.12 M, strand 7 µM): 52.8 °C

ATAACTTTACGTGTGTGACCTATTA+TAATAGGTCACACACGTAAAGTTAT (((((((((((((((((((((((((+)))))))))))))))))))))))))
Tm (sodium 0.07 M, strand 2 µM): 56.6 °C | Tm (sodium 0.12 M, strand 2 µM): 60.7 °C | Tm (sodium 0.22 M, strand 2 µM): 64.7 °C | Tm (sodium 0.62 M, strand 2 µM): 69.6 °C | Tm (sodium 1.02 M, strand 2 µM): 71.8 °C

ATATATAGCTATATAT+ATATATAGCTATATAT ((((((((((((((((+))))))))))))))))
Tm (sodium 0.12 M, strand 5 µM): 39.1 °C

ATATATATAGCTATATATAT+ATATATATAGCTATATATAT ((((((((((((((((((((+))))))))))))))))))))
Tm (sodium 0.12 M, strand 5 µM): 44.8 °C

ATATATATAGCTTTTTTTTT+AAAAAAAAAGCTATATATAT ((((((((((((((((((((+))))))))))))))))))))
Tm (sodium 0.12 M, strand 6 µM): 44.3 °C

ATTGATATCCTTTTCTATTCATCTTTCATT+AATGAAAGATGAATAGAAAAGGATATCAAT ((((((((((((((((((((((((((((((+))))))))))))))))))))))))))))))
Tm (sodium 0.07 M, strand 2 µM): 53.5 °C | Tm (sodium 0.12 M, strand 2 µM): 58.3 °C | Tm (sodium 0.22 M, strand 2 µM): 62.3 °C | Tm (sodium 0.62 M, strand 2 µM): 68.6 °C | Tm (sodium 1.02 M, strand 2 µM): 70.4 °C

CAACTTGATATTAATA+TATTAATATCAAGTTG ((((((((((((((((+))))))))))))))))
Tm (sodium 1 M, strand 18 µM): 52 °C

CAGCAGCAGCAGCAGCAGCAGCAGCAGCAG+CTGCTGCTGCTGCTGCTGCTGCTGCTGCTG ((((((((((((((((((((((((((((((+))))))))))))))))))))))))))))))
Tm (sodium 0.15 M, strand 0.0001 M): 83 °C

CATATTGGCCAATATG+CATATTGGCCAATATG ((((((((((((((((+))))))))))))))))
Tm (sodium 1 M, strand 0.0001 M): 65.3 °C

CCACTATACCATCTATGTAC+GTACATAGATGGTATAGTGG ((((((((((((((((((((+))))))))))))))))))))
Tm (sodium 0.07 M, strand 2 µM): 51.1 °C | Tm (sodium 0.12 M, strand 2 µM): 54.6 °C | Tm (sodium 0.22 M, strand 2 µM): 58.4 °C | Tm (sodium 0.62 M, strand 2 µM): 62.2 °C | Tm (sodium 1.02 M, strand 2 µM): 64.4 °C

CGAGCTTATCCCTATCCCTC+GAGGGATAGGGATAAGCTCG ((((((((((((((((((((+))))))))))))))))))))
Tm (sodium 0.07 M, strand 2 µM): 56 °C | Tm (sodium 0.12 M, strand 2 µM): 60.2 °C | Tm (sodium 0.22 M, strand 2 µM): 64.1 °C | Tm (sodium 0.62 M, strand 2 µM): 68.5 °C | Tm (sodium 1.02 M, strand 2 µM): 70.3 °C

CGCAAAAAAAAAACGC+GCGTTTTTTTTTTGCG ((((((((((((((((+))))))))))))))))
Tm (sodium 0.1 M, strand 4 µM): 54.1 °C

CGCCGCTGCCGACTGGAGGAGCGCGGGACG+CGTCCCGCGCTCCTCCAGTCGGCAGCGGCG ((((((((((((((((((((((((((((((+))))))))))))))))))))))))))))))
Tm (sodium 0.07 M, strand 2 µM): 77.8 °C | Tm (sodium 0.12 M, strand 2 µM): 81.6 °C | Tm (sodium 0.22 M, strand 2 µM): 84.6 °C | Tm (sodium 0.62 M, strand 2 µM): 87.7 °C | Tm (sodium 1.02 M, strand 2 µM): 88.6 °C

CGCGCCACGTGTGATCTACAGCCGTTCGGC+GCCGAACGGCTGTAGATCACACGTGGCGCG ((((((((((((((((((((((((((((((+))))))))))))))))))))))))))))))
Tm (sodium 0.07 M, strand 2 µM): 72.7 °C | Tm (sodium 0.12 M, strand 2 µM): 76.3 °C | Tm (sodium 0.22 M, strand 2 µM): 79.5 °C | Tm (sodium 0.62 M, strand 2 µM): 83.4 °C | Tm (sodium 1.02 M, strand 2 µM): 84.5 °C

CGCGCGCGACTGACTG+CAGTCAGTCGCGCGCG ((((((((((((((((+))))))))))))))))
Tm (sodium 0.12 M, strand 44 µM): 69.4 °C

CGGGACCAACTAAAGGAAAT+ATTTCCTTTAGTTGGTCCCG ((((((((((((((((((((+))))))))))))))))))))
Tm (sodium 0.07 M, strand 2 µM): 53.7 °C | Tm (sodium 0.12 M, strand 2 µM): 57.7 °C | Tm (sodium 0.22 M, strand 2 µM): 61.7 °C | Tm (sodium 0.62 M, strand 2 µM): 66.7 °C | Tm (sodium 1.02 M, strand 2 µM): 68.5 °C

CTCAACTTGCGGTAAATAAATCGCTTAATC+GATTAAGCGATTTATTTACCGCAAGTTGAG ((((((((((((((((((((((((((((((+))))))))))))))))))))))))))))))
Tm (sodium 0.07 M, strand 2 µM): 60.9 °C | Tm (sodium 0.12 M, strand 2 µM): 64.8 °C | Tm (sodium 0.22 M, strand 2 µM): 68.7 °C | Tm (sodium 0.62 M, strand 2 µM): 74.4 °C | Tm (sodium 1.02 M, strand 2 µM): 75.5 °C

GACGACGACGACGACGACGACGACGACGAC+GTCGTCGTCGTCGTCGTCGTCGTCGTCGTC ((((((((((((((((((((((((((((((+))))))))))))))))))))))))))))))
Tm (sodium 0.15 M, strand 0.0001 M): 83 °C

GATATAGCAAAATTCTAAGTTAATA+TATTAACTTAGAATTTTGCTATATC (((((((((((((((((((((((((+)))))))))))))))))))))))))
Tm (sodium 0.07 M, strand 2 µM): 49.1 °C | Tm (sodium 0.12 M, strand 2 µM): 53.5 °C | Tm (sodium 0.22 M, strand 2 µM): 57.7 °C | Tm (sodium 0.62 M, strand 2 µM): 63.3 °C | Tm (sodium 1.02 M, strand 2 µM): 66.1 °C

GCCAACTCCGTCGCCGTTCGTGCGC+GCGCACGAACGGCGACGGAGTTGGC (((((((((((((((((((((((((+)))))))))))))))))))))))))
Tm (sodium 0.07 M, strand 2 µM): 73.5 °C | Tm (sodium 0.12 M, strand 2 µM): 76.5 °C | Tm (sodium 0.22 M, strand 2 µM): 80.6 °C | Tm (sodium 0.62 M, strand 2 µM): 83.2 °C | Tm (sodium 1.02 M, strand 2 µM): 84.6 °C

GCCGAGGTCCATGTCGTACGC+GCGTACGACATGGACCTCGGC (((((((((((((((((((((+)))))))))))))))))))))
Tm (sodium 0.1 M, strand 4 µM): 69.5 °C

GCGAGCGACAGGTTACTTGGCTGAT+ATCAGCCAAGTAACCTGTCGCTCGC (((((((((((((((((((((((((+)))))))))))))))))))))))))
Tm (sodium 0.07 M, strand 2 µM): 67 °C | Tm (sodium 0.12 M, strand 2 µM): 70.8 °C | Tm (sodium 0.22 M, strand 2 µM): 74.7 °C | Tm (sodium 0.62 M, strand 2 µM): 78.6 °C | Tm (sodium 1.02 M, strand 2 µM): 80.1 °C

GCTAAAAAGAGAGAGAGATCG+CGATCTCTCTCTCTTTTTAGC (((((((((((((((((((((+)))))))))))))))))))))
Tm (sodium 1 M, strand 3 µM): 69 °C

GTAGAATTCTTTTCCTTCTAGATCG+CGATCTAGAAGGAAAAGAATTCTAC (((((((((((((((((((((((((+)))))))))))))))))))))))))
Tm (sodium 0.1 M, strand 1 µM): 62 °C

GTATAACCGGTTATAC+GTATAACCGGTTATAC ((((((((((((((((+))))))))))))))))
Tm (sodium 1 M, strand 0.0001 M): 65.9 °C

GTCCACGCCCGGTGCGACGG+CCGTCGCACCGGGCGTGGAC ((((((((((((((((((((+))))))))))))))))))))
Tm (sodium 0.07 M, strand 2 µM): 70.9 °C | Tm (sodium 0.12 M, strand 2 µM): 73.9 °C | Tm (sodium 0.22 M, strand 2 µM): 77.3 °C | Tm (sodium 0.62 M, strand 2 µM): 79.8 °C | Tm (sodium 1.02 M, strand 2 µM): 81.1 °C

GTTATTCCGCAGTCCGATGGCAGCAGGCTC+GAGCCTGCTGCCATCGGACTGCGGAATAAC ((((((((((((((((((((((((((((((+))))))))))))))))))))))))))))))
Tm (sodium 0.07 M, strand 2 µM): 70.6 °C | Tm (sodium 0.12 M, strand 2 µM): 74.9 °C | Tm (sodium 0.22 M, strand 2 µM): 78.1 °C | Tm (sodium 0.62 M, strand 2 µM): 82.4 °C | Tm (sodium 1.02 M, strand 2 µM): 84.1 °C

GTTCTATACTCTTGAAGTTGATTAC+GTAATCAACTTCAAGAGTATAGAAC (((((((((((((((((((((((((+)))))))))))))))))))))))))
Tm (sodium 0.07 M, strand 2 µM): 52.7 °C | Tm (sodium 0.12 M, strand 2 µM): 56.1 °C | Tm (sodium 0.22 M, strand 2 µM): 60.6 °C | Tm (sodium 0.62 M, strand 2 µM): 66.1 °C | Tm (sodium 1.02 M, strand 2 µM): 67.7 °C

TATTGAGAACAAGTGTCCGATTAGCAGAAA+TTTCTGCTAATCGGACACTTGTTCTCAATA ((((((((((((((((((((((((((((((+))))))))))))))))))))))))))))))
Tm (sodium 0.07 M, strand 2 µM): 61.3 °C | Tm (sodium 0.12 M, strand 2 µM): 65.4 °C | Tm (sodium 0.22 M, strand 2 µM): 69.6 °C | Tm (sodium 0.62 M, strand 2 µM): 74.8 °C | Tm (sodium 1.02 M, strand 2 µM): 76.4 °C

TCGGAGAAATCACTGAGCTGCCTGAGAAGA+TCTTCTCAGGCAGCTCAGTGATTTCTCCGA ((((((((((((((((((((((((((((((+))))))))))))))))))))))))))))))
Tm (sodium 0.07 M, strand 2 µM): 66.3 °C | Tm (sodium 0.12 M, strand 2 µM): 70.4 °C | Tm (sodium 0.22 M, strand 2 µM): 74.1 °C | Tm (sodium 0.62 M, strand 2 µM): 79 °C | Tm (sodium 1.02 M, strand 2 µM): 80.9 °C

TGATTCTACCTATGTGATTT+AAATCACATAGGTAGAATCA ((((((((((((((((((((+))))))))))))))))))))
Tm (sodium 0.07 M, strand 2 µM): 49.1 °C | Tm (sodium 0.12 M, strand 2 µM): 53.5 °C | Tm (sodium 0.22 M, strand 2 µM): 57.4 °C | Tm (sodium 0.62 M, strand 2 µM): 62.3 °C | Tm (sodium 1.02 M, strand 2 µM): 64.4 °C

TTCAAGTTAAACATTCTATC+GATAGAATGTTTAACTTGAA ((((((((((((((((((((+))))))))))))))))))))
Tm (sodium 0.07 M, strand 2 µM): 45.7 °C | Tm (sodium 0.12 M, strand 2 µM): 49.5 °C | Tm (sodium 0.22 M, strand 2 µM): 53.9 °C | Tm (sodium 0.62 M, strand 2 µM): 59.4 °C | Tm (sodium 1.02 M, strand 2 µM): 61.5 °C
